{"source": "patent US20250376498A1", "about": "“FUSION PROTEINS COMPRISING AN IMPROVED GLP-1 RECEPTOR AGONIST AND USES THEREOF” (Guangzhou Innogen Pharmaceutical Group Co., Ltd., priority 2022, published 2025)", "molecules": {"B1": {"name": "YN-011: GLP-1 fusion protein of SEQ ID NO: 7: GLP-1 (A8G, G22E, R36G), linker peptide and IgG2/Fc domain (C222S, A330S, P331S) (protein)", "chain": "HGEGTFTSDVSSYLEEQAAKEFIAWLVKGGGSSGAPPPSGGGGSERKSCVECPPCPAPPVAGPSVFLFPPKPKDTLMISRTPEVTCVVVDVSHEDPEVQFNWYVDGVEVHNAKTKPREEQFNSTFRVVSVLTVVHQDWLNGKEYKCKVSNKGLPSSIEKTISKTKGQPREPQVYTLPPSREEMTKNQVSLTCLVKGFYPSDIAVEWESNGQPENNYKTTPPMLDSDGSFFLYSKLTVDKSRWQQGNVFSCSVMHEALHNHYTQKSLSLSPG"}}, "key": {"db/db mice": {"system": "db/db mice", "experiment": "Multiple subcutaneous injections in db/db mice (type 2 diabetes model)", "assay_type": "in vivo", "conditions": "for rate of fasting blood glucose reduction: 54 hours (day 21) after the 7th administration; for average rate of decline in random blood glucose levels: 72 hours after the 7th administration; for average rate of fasting blood glucose reduction: average over measurement time points", "procedure": "The impact of multiple subcutaneous injections of YN-011 on reducing blood glucose levels was evaluated in db/db mice (Jackson Laboratories, 000642). The mice were kept under normal lighting conditions (12 hours light/12 hours dark) and at room temperature, with free access to food (normal rodent chow) and water. Db/db mice lack leptin receptors and spontaneously develop obesity, hyperglycemia, and pancreatic B-cell atrophy by 4 weeks of age.\nSixty affected db/db mice (33-45g) were divided into six groups of 10 mice each (5 males and 5 females) and administered 0 (PBS buffer control), 0.15, 0.3, 0.6, or 1.2 mg/kg of YN-011, or 0.3 mg/kg of Degludec via subcutaneous injection. Another group of wild-type mice (17-22g) with the same genetic background served as the normal control. The administration frequency was once every 3 days (Q3D), with a total of 9 doses administered over a period of 26 days. […] The duration of the hypoglycemic effect ranged from 34 to 72 hours within the dose range of 0.15-1.2 mg/kg."}, "[1]": {"conditions": "human, in vivo"}, "patients with T2DM": {"system": "patients with T2DM", "conditions": "1 mg YN-011, 24 weeks"}, "T2DM subjects": {"system": "T2DM subjects", "experiment": "Phase IIa clinical trial, efficacy and safety in T2DM subjects", "assay_type": "in vivo, human", "procedure": "Key inclusion criteria for the phase IIa study: • Patients with T2DM (WHO 1999) who have not taken metformin for at least 1 week and have not taken any other oral antidiabetic drugs for at least 2 weeks. • HbA1c levels at screening: 7.0%≤HbA1c≤10.0%. • Age between 18 and 65 years at screening. • BMI ≥20 kg/m^2 and ≤40 kg/m^2.\nKey exclusion criteria for the phase IIa study: • Type 1 diabetes. • Fasting C-peptide <0.81 ng/mL. • Laboratory parameters meeting one of the following criteria: alanine aminotransferase (ALT) levels ≥2.5 ×ULN, and/or aspartate aminotransferase (AST) levels ≥2.5 ×ULN, fasting triglycerides >5.6 mmol/L; estimated glomerular filtration rate (eGFR) calculated by the CKD-EPI (EPI-(Scr)) equation <45 mL/min/1.73 m^2, • Known susceptibility to familial (first-degree relatives) or personal history of type 2 multiple endocrine neoplasia or medullary thyroid carcinoma. • Uncontrolled hypertension. • Known history of pancreatitis, pancreatic cancer, or serum amylase >1.2 ×ULN, or high-risk factors for pancreatitis at screening. • Patients with uncontrolled hypothyroidism. • Suspicion of active infection. • Positive hepatitis B surface antigen (HBsAg), hepatitis C antibody (HCV-Ab), human immunodeficiency virus antibody (HIV-Ab), or Treponema pallidum antibody (TPAb). • Treatment with GLP-1 receptor agonists, DPP-4 inhibitors, or insulin in the 3 months prior to randomization. • History of grade 3-4 allergy to any protein drug as per CTCAE. • Blood donation or blood loss exceeding 450 mL in the 3 months prior to screening. • Any significant endocrine, immune, coagulation, urinary reproductive tract abnormality, or hematological disease. • Clinically significant gastric emptying disorder (e.g., gastric outlet obstruction), severe chronic gastrointestinal disease (e.g., active ulcer within 6 months), long-term use of drugs directly affecting gastrointestinal motility, or previous gastrointestinal surgery. • Any other condition that the investigator or primary physician deems unsuitable for participation in the study. […]"}, "[2]": {"conditions": "db/db mice, after the last administration (9th dose, day 26)"}}, "note": "“Also recorded” adds a separate entry of the source."}
{"molecule": "B1", "values": [{"measurement": "rate of fasting blood glucose reduction", "setting": "db/db mice; db/db mice, 0.15 mg/kg Q3D sc", "value": 46.8, "unit": "%"}, {"measurement": "average rate of decline in random blood glucose levels", "setting": "db/db mice; db/db mice, 0.15 mg/kg Q3D sc", "value": 31.8, "unit": "%"}, {"measurement": "average rate of fasting blood glucose reduction", "setting": "db/db mice; db/db mice, 0.15 mg/kg Q3D sc", "value": 55.0, "unit": "%"}, {"measurement": "rate of fasting blood glucose reduction", "setting": "db/db mice; db/db mice, 0.3 mg/kg Q3D sc", "value": 55.6, "unit": "%"}, {"measurement": "average rate of decline in random blood glucose levels", "setting": "db/db mice; db/db mice, 0.3 mg/kg Q3D sc", "value": 46.2, "unit": "%"}, {"measurement": "average rate of fasting blood glucose reduction", "setting": "db/db mice; db/db mice, 0.3 mg/kg Q3D sc", "value": 61.8, "unit": "%"}, {"measurement": "serum free fatty acid levels", "setting": "db/db mice; db/db mice, 0.6 mg/kg", "value": "significantly reduced"}, {"measurement": "rate of fasting blood glucose reduction", "setting": "db/db mice; db/db mice, 0.6 mg/kg Q3D sc", "value": 59.5, "unit": "%"}, {"measurement": "average rate of decline in random blood glucose levels", "setting": "db/db mice; db/db mice, 0.6 mg/kg Q3D sc", "value": 50.8, "unit": "%"}, {"measurement": "average rate of fasting blood glucose reduction", "setting": "db/db mice; db/db mice, 0.6 mg/kg Q3D sc", "value": 63.7, "unit": "%"}, {"measurement": "perirenal fat content", "setting": "db/db mice; db/db mice, 1.2 mg/kg", "value": "significantly reduced"}, {"measurement": "rate of fasting blood glucose reduction", "setting": "db/db mice; db/db mice, 1.2 mg/kg Q3D sc", "value": 64.7, "unit": "%"}, {"measurement": "average rate of decline in random blood glucose levels", "setting": "db/db mice; db/db mice, 1.2 mg/kg Q3D sc", "value": 54.3, "unit": "%"}, {"measurement": "average rate of fasting blood glucose reduction", "setting": "db/db mice; db/db mice, 1.2 mg/kg Q3D sc", "value": 66.1, "unit": "%"}, {"measurement": "serum fructosamine levels", "setting": "db/db mice; db/db mice, 1.2 mg/kg sc", "value": "significant reduction"}, {"measurement": "time the hypoglycemic effect (fasting blood glucose) can be maintained", "setting": "db/db mice; db/db mice, 0.15, 0.3, 0.6 and 1.2 mg/kg every 3 days", "value": "at least 54 hours"}, {"measurement": "scapular fat content", "setting": "db/db mice; db/db mice, 0.15, 0.3 and 0.6 mg/kg", "value": "significantly reduced"}, {"measurement": "serum fructosamine levels", "setting": "db/db mice; db/db mice, 0.15-0.6 mg/kg sc", "value": "decreasing trend"}, {"measurement": "subcutaneous fat content, inguinal fat content and their ratios to body weight", "setting": "db/db mice; db/db mice, 0.3, 0.6 and 1.2 mg/kg", "value": "significantly reduced"}, {"measurement": "random and fasting body weights", "setting": "db/db mice; db/db mice, 0.3, 0.6 and 1.2 mg/kg (P<0.05, P<0.01, P<0.001)", "value": "significant decreases"}, {"measurement": "insulin secretion (serum insulin levels)", "setting": "db/db mice; db/db mice, 3 hours after administration", "value": "significantly promoted insulin secretion"}, {"measurement": "fasting blood glucose levels versus model control group", "setting": "db/db mice; db/db mice, Q3D sc, YN-011 all dose groups (P<0.001), Degludec 0.3 mg/kg", "value": "significant decrease; also recorded: significantly reduced fasting blood glucose levels"}, {"measurement": "epididymal fat content and its ratio to body weight", "setting": "db/db mice; db/db mice, YN-011 treatment groups vs solvent control", "value": "significant decrease"}, {"measurement": "time the hypoglycemic effect was sustained", "setting": "db/db mice; db/db mice, after repeated administration", "value": 72, "unit": "h"}, {"measurement": "fasting serum insulin levels", "setting": "db/db mice; [2]", "value": "dose-dependently increased"}, {"measurement": "pancreatic-cell mass", "setting": "db/db mice; [2]", "value": "significant increase"}, {"measurement": "time after administration at which therapeutic effect was observed", "setting": "db/db mice; db/db mice, first administration, dose as low as 0.15 mg/kg", "value": 3, "unit": "h"}, {"measurement": "random plasma glucose (RPG) concentration", "setting": "db/db mice; db/db mice, following the first subcutaneous administration, 0.15-1.2 mg/kg", "value": "significantly reduced"}, {"measurement": "serum triglyceride levels", "setting": "db/db mice; db/db mice, multiple sc injections vs solvent control", "value": "significantly decreased"}, {"measurement": "RPG levels versus control group", "setting": "db/db mice; db/db mice, repeated administration, all dose groups and time points except 0.15 mg/kg after the 4th administration (P=0.07)", "value": "significantly lower"}, {"measurement": "half-life compared with SUPA-1, Dulaglutide and Semaglutide", "setting": "[1]", "value": "significantly longer half-life than Dulaglutide and Semaglutide"}, {"measurement": "plasma concentration steady state", "setting": "[1]", "value": "reached a steady state after the fourth dose"}, {"measurement": "median Tmax", "setting": "[1]; sc", "value": "60 to 84", "unit": "h"}, {"measurement": "reduction in HbA1c levels", "setting": "patients with T2DM", "value": 1.73, "unit": "%"}, {"measurement": "side effects or safety risks", "setting": "T2DM subjects; 1-4 mg sc", "value": "No significant side effects or safety risks"}, {"measurement": "HbA1c levels compared to placebo", "setting": "T2DM subjects; multiple sc administrations, 1 mg, 3 mg or 4 mg, p<0.05", "value": "persistent improvement; also recorded: significant difference compared to the placebo"}, {"measurement": "fasting blood glucose compared to placebo", "setting": "T2DM subjects; multiple sc administrations, 3 mg or 4 mg, p<0.05", "value": "statistically significant improvement; also recorded: significant difference compared to the placebo"}]}
